Data: the supplement of paper PMC7877785
± gives the uncertainty stated by the source.

Test: self-splicing fitness, log relative to wild type (ln ratio); higher = more splicing; Tetrahymena group I intron in knt gene, E. coli kanamycin selection, DiMSum; sequences stand for … in CUCUCU…GGAGGGAAAAGUUAUCAGGCAUGCACCUGGUAGCUAGUCUUUAAACCAAUAGAUUGCAUCGGUUUAAAAGGCAAGACCGUCAAAUUGCGGGAAAGGGGUCAACAGCCGUUCAGUACCAAGUCUCAGGGGAAACUUUGAGAUGGCCUUGCAAAGGGUAUGGUAAUAAGCUGACGGACAUGGUCCUAACCACGCAGCCAAGUCCUAAGUCAACAGAUCUUCUGUUGAUAUGGAUGCAGUUCACAGACUAAAUGUCGGUCGGGGAAGAUGUAUUCUUCUCAUAAGAUAUAGUCGGACCUCUCCUUAAUGGGAGCUAGCGGAUGAAGUGAUGCAACACUGGAGCCGCUGGGAACUAAUUUGUAUGCGAAAGUAUAUUGAUUAGUUUUGGAGUACUCGUGGUCG
In short: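 The eight P1ex-region nucleotides of an intron in the knt kanamycin-resistance gene on pET-22b(+) were all randomised and the library put into E. coli BL21(DE3). Six replicate transformations were grown overnight at 37°C or 30°C on LB agar with or without 25 μg/mL kanamycin, together with 100 μg/mL carbenicillin, 50 μM IPTG and 0.2% rhamnose. Colonies were pooled and amplicon-sequenced on an Illumina HiSeq 2500. Fitness from DiMSum is the error-weighted combination of wild-type-normalised replicate fold changes, kanamycin over none.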

Sequence | self-splicing fitness (ln) (30 °C) | self-splicing fitness (ln) (37 °C)
AAACAGCAAUAUUACGCAUA | -2 ± 0.096 | -0.419 ± 0.073
CAGUAGCAAUAUUACGUCGG | -0.645 ± 0.078 | -0.0434 ± 0.1
GGCGAGCAAUAUUACGGAGG | -2.52 ± 0.34 | -1.9 ± 0.45
UCUUAGCAAUAUUACGCUCU | -1.99 ± 0.24 | -1.61 ± 0.29
GGCGAGCAAUAUUACGCAAA | -2.13 ± 0.19 | -2.01 ± 0.14
AAAAAGCAAUAUUACGAAUC | -2.31 ± 0.21 | -2.21 ± 0.23
CCCCAGCAAUAUUACGGUUU | -3.85 ± 0.16 | -3.12 ± 0.21
AUGAAGCAAUAUUACGCUGU | -2.02 ± 0.12 | -0.999 ± 0.13
GGAGAGCAAUAUUACGAAAC | -2.48 ± 0.29 | -1.36 ± 0.47
GACCAGCAAUAUUACGGGAU | -1.71 ± 0.084 | -0.575 ± 0.099
UCUUAGCAAUAUUACGAGCA | -0.901 ± 0.15 | -0.00766 ± 0.15
CGUAAGCAAUAUUACGUCCU | -1.88 ± 0.15 | -0.604 ± 0.17
CGCGAGCAAUAUUACGAAUG | -1.9 ± 0.095 | -0.424 ± 0.13
CCGAAGCAAUAUUACGCCAC | – | -1.9 ± 0.34
CCCGAGCAAUAUUACGUUCC | -2.86 ± 0.4 | –
CUCUAGCAAUAUUACGUAGU | -4.1 ± 0.26 | -4.45 ± 0.36
UGGCAGCAAUAUUACGAUCG | 0.335 ± 0.067 | 1.02 ± 0.1
AUCCAGCAAUAUUACGCAAC | -2.21 ± 0.13 | -0.741 ± 0.12
CCCUAGCAAUAUUACGCAAG | -3.65 ± 0.28 | -2.06 ± 0.23
GCCUAGCAAUAUUACGUUGA | -1.54 ± 0.11 | -0.577 ± 0.1
GUGCAGCAAUAUUACGGACC | -0.711 ± 0.31 | –
UCGCAGCAAUAUUACGUCCG | -0.808 ± 0.078 | -0.0675 ± 0.1
AAUCAGCAAUAUUACGCUAG | -0.729 ± 0.066 | 0.121 ± 0.09
GAUUAGCAAUAUUACGGACG | -0.885 ± 0.19 | 0.241 ± 0.16
UUGAAGCAAUAUUACGCAUU | -3.34 ± 0.23 | -3.18 ± 0.25
CCAAAGCAAUAUUACGUCGC | -3.49 ± 0.18 | -2.29 ± 0.18

Sequence | self-splicing fitness (ln) (30 °C) | self-splicing fitness (ln) (37 °C)
UGGCAGCAAUAUUACGUUUG | -0.921 ± 0.06 | -0.496 ± 0.089
CCUCAGCAAUAUUACGCGUG | -1.85 ± 0.081 | -0.545 ± 0.072
GGUAAGCAAUAUUACGUAAU | -1.21 ± 0.096 | -0.781 ± 0.12
AUUGAGCAAUAUUACGUGCU | -3.03 ± 0.24 | -3.17 ± 0.35
UAUCAGCAAUAUUACGGGGA | -1.76 ± 0.094 | -0.643 ± 0.1
UGCAAGCAAUAUUACGUACG | -0.89 ± 0.12 | -0.478 ± 0.1
UACUAGCAAUAUUACGUAUG | -3.59 ± 0.26 | -1.8 ± 0.23
CUGCAGCAAUAUUACGCGCG | -1.6 ± 0.075 | -0.249 ± 0.087
CUAAAGCAAUAUUACGUCUA | -4.21 ± 0.27 | -2.2 ± 0.22
CGAUAGCAAUAUUACGGUUG | -1.9 ± 0.15 | -0.9 ± 0.13
GUUGAGCAAUAUUACGAUUA | -1.94 ± 0.21 | -1.23 ± 0.22
AGCCAGCAAUAUUACGGGUA | -1.59 ± 0.094 | -1.08 ± 0.092
ACAUAGCAAUAUUACGUUUG | -2.83 ± 0.12 | -2.51 ± 0.15
GGAGAGCAAUAUUACGGUAC | -3.27 ± 0.5 | -2.07 ± 0.24
UUUCAGCAAUAUUACGCUCA | -0.608 ± 0.17 | 0.404 ± 0.18
AAGUAGCAAUAUUACGAUAA | -1.36 ± 0.12 | -1.09 ± 0.13
UGCAAGCAAUAUUACGCCGG | -2.06 ± 0.13 | -0.615 ± 0.17
GGAAAGCAAUAUUACGACAU | -0.445 ± 0.013 | -0.0162 ± 0.033
AUCCAGCAAUAUUACGUAUC | -3.8 ± 0.27 | -2.26 ± 0.2
CGUUAGCAAUAUUACGAUUU | -2.51 ± 0.27 | -1.66 ± 0.25
CCGUAGCAAUAUUACGGCCU | -1.36 ± 0.14 | -2.7 ± 0.41
UGUUAGCAAUAUUACGUCAA | -1.27 ± 0.12 | -1.2 ± 0.11
UGUUAGCAAUAUUACGUAUA | -1.7 ± 0.12 | -0.458 ± 0.11
UGAUAGCAAUAUUACGCAUU | -2.52 ± 0.17 | -2.11 ± 0.17
GCCUAGCAAUAUUACGCUUC | -2.42 ± 0.16 | -0.334 ± 0.13
GAAAAGCAAUAUUACGCCCA | -0.288 ± 0.11 | -0.385 ± 0.19

Sequence | self-splicing fitness (ln) (30 °C) | self-splicing fitness (ln) (37 °C)
UGAGAGCAAUAUUACGUUCC | – | -2.11 ± 0.47
ACGGAGCAAUAUUACGUGCG | -2.63 ± 0.17 | -1.79 ± 0.18
UCUUAGCAAUAUUACGGGAG | -2.63 ± 0.49 | -2.41 ± 0.35
AUAAAGCAAUAUUACGGGAU | -0.81 ± 0.055 | -0.671 ± 0.083
CCGAAGCAAUAUUACGCCGU | -2.44 ± 0.27 | -1.04 ± 0.36
UGUAAGCAAUAUUACGACUC | -1.52 ± 0.19 | -0.632 ± 0.25
GCAAAGCAAUAUUACGUUAG | -3.02 ± 0.13 | -1.82 ± 0.14
GGCCAGCAAUAUUACGUUCA | -3.23 ± 0.23 | -0.905 ± 0.19
GCAAAGCAAUAUUACGGGAU | -1.93 ± 0.067 | -0.98 ± 0.097
ACUAAGCAAUAUUACGUUCG | -1.06 ± 0.074 | -0.408 ± 0.092
AGUCAGCAAUAUUACGAUGC | -1.04 ± 0.097 | -0.00334 ± 0.11
GAACAGCAAUAUUACGCCGA | -0.857 ± 0.12 | -0.581 ± 0.1
CUUUAGCAAUAUUACGUUAA | -2.87 ± 0.27 | –
GCAUAGCAAUAUUACGGCCG | -2.37 ± 0.36 | -0.909 ± 0.39
AAAGAGCAAUAUUACGGCGG | -3.05 ± 0.19 | -2.21 ± 0.24
GCGAAGCAAUAUUACGUACU | -0.436 ± 0.073 | 0.194 ± 0.09
ACGUAGCAAUAUUACGGCCC | -0.341 ± 0.15 | 0.0459 ± 0.25
GUAGAGCAAUAUUACGAUCG | -2.6 ± 0.15 | -0.951 ± 0.17
GGUCAGCAAUAUUACGGCCU | -2.84 ± 0.29 | -2.34 ± 0.45
CUUCAGCAAUAUUACGAUAA | -2.68 ± 0.19 | -1.07 ± 0.14
GCGUAGCAAUAUUACGGAUU | -1.59 ± 0.13 | -0.574 ± 0.15
AGCAAGCAAUAUUACGUGUG | -2.9 ± 0.1 | -1.17 ± 0.081
UCUGAGCAAUAUUACGCUGG | -2 ± 0.16 | -1.11 ± 0.17
GGUUAGCAAUAUUACGACCU | -1.72 ± 0.35 | -0.0941 ± 0.33
